{"source": "patent US20130109846A1", "about": "(published 2013)", "target": "human CD28 (human, UniProt P10747 19-220)", "assay": "cell-based or functional assay", "data": [{"binder": "1h-36 (other) VL: DIQMTQSPSSLSASVGDRVTITCRASRDIALDLLWYQQKPGKAPKLLIKGWSGLQSGVPSRFSGSGSGTDFTLTISSLQPEDFATYYCAQGWGRPVTFGQGTKVEIKR", "values": [{"measurement": "Luciferase assay (EC50)", "result": 570, "unit": "nM"}, {"measurement": "MLR assay (EC50)", "result": 1800, "unit": "nM"}]}, {"binder": "1h-84 (other) VL: DIQMTQSPSSLSASVGDRVTITCRASQSIGKGLMWYQQKPGKAPKLLIYWASMLQSGVPSRFSGSGSGTDFTLTISSLQPEDFATYYCQQSLRTPFTFGQGTEVEIKR", "values": [{"measurement": "Luciferase assay (EC50)", "result": 1500, "unit": "nM"}]}, {"binder": "1h-85 (other) VL: DIQMTQSPSSLSASVGDRVTITCRASQPIGASLLWYQQKPGKAPRLLIYWGSLLQSGVPSRFSGSGSGTDFTLTISSLQPEDLATYYCQQSLRTPFTFGQGTKVEIKR", "values": [{"measurement": "Luciferase assay (EC50)", "result": 530, "unit": "nM"}]}, {"binder": "1h-82 (other) VL: DIQMTQSPSSLSASVGDRVTITCRASQDIGLNLLWYQQKPGKAPTLLIYWSSMLQSGVPSRFSGSGSGTDFTLTISSLQPEDFATYYCQQGRMRPFTFGQGTKVEIKR", "values": [{"measurement": "Luciferase assay (EC50)", "result": 1900, "unit": "nM"}]}, {"binder": "1h-86 (other) VL: DIQMTQSPSSLSASVGDRVTITCRASQDIGQSLVWYQQKPGKAPKLLIYWASMLQSGVPSRFSGSGSGTDFTLTISSLQPEDFATYYCQQVMRRPFTFGQGTKVEIKR", "values": [{"measurement": "Luciferase assay (EC50)", "result": 400, "unit": "nM"}]}, {"binder": "1h-90 (other) VL: DIQMTQSPSSLSASVGDRVTITCRASQTIGHGLVWYQQKPGKAPKLLIYWSSHLQSGVPSRFSGSGSGTDFTLTISSLQPEDFATYYCQQTLRTPFTFGQGTKVEIKR", "values": [{"measurement": "Luciferase assay (EC50)", "result": 1000, "unit": "nM"}]}, {"binder": "1h-80-2 (other) VL: DIQMTQSPSSLSASVGDRVTITCRASQRIGSNLAWYQQKPGKAPKLLIYWASLLQSGVPSRFSGSGSETDFTLTISSLQPEDFATYYCQQTRSAPFAFGQGTKVEIKR", "values": [{"measurement": "Luciferase assay (EC50)", "result": 62, "unit": "nM"}, {"measurement": "MLR assay (EC50)", "result": 550, "unit": "nM"}]}, {"binder": "1h-80-7 (other) VL: DIQMTQSPSSLSASVGDRVTITCRASQRIGSNLAWYQQKPGKAPKLLIYWASLLQSGVPSRFSGSGSGSDFTLTISSLQPEDFATYYCQETRSAPFTFGQGTKVEIKR", "values": [{"measurement": "Luciferase assay (EC50)", "result": 322, "unit": "nM"}]}, {"binder": "1h-79 (other) VL: DIQMTQSPSSLSASVGDRVTITCRASQPIGHSLAWYQQKPGKAPKLLIYWASTLQSGVPSRFSGSGSGTDFTLTISSLQPEDFATYYCQQMLRTPFTFGQGTKVEIKR", "values": [{"measurement": "Luciferase assay (EC50)", "result": 3800, "unit": "nM"}, {"measurement": "MLR assay (EC50)", "result": 3200, "unit": "nM"}]}, {"binder": "1h-83 (other) VL: DIQMTQSPSSLSASVGDRVTITCRASQSIGHSLVWYQQKPGKAPKLLIYWASLLQSGVSSRFSGSGSGTDFTLTISSLQPEDFATYYCQQSRAAPFTFGQGTKVEIKR", "values": [{"measurement": "Luciferase assay (EC50)", "result": 1300, "unit": "nM"}, {"measurement": "MLR assay (EC50)", "result": 1700, "unit": "nM"}]}, {"binder": "1h-81 (other) VL: DIQMTQSPSSLSASVGDRVTITCRASQEIDHGLAWYQQKPGKAPKLLIYWASRLQSGVPSRFSGSGSGTDFTLTISSLQPEDFATYYCQQVVAAPFTFGQGTKVEIKR", "values": [{"measurement": "Luciferase assay (EC50)", "result": 3300, "unit": "nM"}]}, {"binder": "1h-87 (other) VL: DIQMTQSPSSLSASVGDRVTITCRASQSIGKSLAWYQQKPGKAPKLLIYWVSLLQSGVPSRFSGSGSGTDFTLTISSLQPEDFATYYCQQIVSRPFTFGQGTKVEIKR", "values": [{"measurement": "Luciferase assay (EC50)", "result": 1700, "unit": "nM"}]}, {"binder": "1h-108 (other) VL: DIQMTQSPSSLSASVGDRVTITCRASQYIGTALNWYQQKPGKAPKLLIYRRSHLQSGVPSRFSGSGSGTDFTLTISSLQPEDFATYYCQQIALTPYTFGQGTKVEIKR", "values": [{"measurement": "Luciferase assay (EC50)", "result": 1900, "unit": "nM"}, {"measurement": "MLR assay (EC50)", "result": 2700, "unit": "nM"}]}]}
